Series [1] is described as follows: Isoelectric point (PI) measurement. Type of series: physicochemical. The conditions noted are these: unlabeled compound.
Series [2] relates to SUM149PT human breast cancer cell line. In words: Cell saturation binding assay, SUM149PT. To be noted: 68Ga-labeled compound. Here is the method: (1) For the cell saturation binding assay, a total of 8 radiolabeled ligand concentrations were set at intervals within the anticipated range. For each concentration, there were 3 groups: the non-inhibition group, the first single inhibition group (FAP single inhibition group), and the second single inhibition group (CXCR4/GRPR/αvβ3 single inhibition group). For each concentration and each group, 3 replicate wells were established.
(2) Cells were plated into a 24-well plate according to the cell plating procedure described above.
(3) The original culture medium was removed from the 24-well plate. Then, 400 μL of 100 mg/mL skimmed milk solution was added to each well for blocking for one hour. After removing the skimmed milk solution, each of wells was washed three times by adding 400 μL of PBS solution. Subsequently, 146 μL of FBS-free medium was added to each well. Next, the non-inhibition group received 4 μL of cold PBS per well, while the first single inhibition group and the second single inhibition group received the following additions per well according to Table 4: 2 μL of non-radiolabeled first single inhibitor solution and 2 μL of cold PBS; 2 μL of non-radiolabeled second single inhibitor solution and 2 μL of cold PBS. The plate was then incubated at room temperature for one hour.
(4) The ligands were radiolabeled with 68Ga using the labeling method described previously. Different volumes of FBS-free medium were added to formulate the radioligand systems at corresponding concentrations. Then, 50 μL of the corresponding concentration of the radioligand system was added to each well.
(5) The supernatant was removed, and the wells were washed three times with 400 μL of PBS. 200 μL of IM NaOH solution was added to each well for cell lysis. […] Each well was washed once with 400 μL of PBS solution, and the washings were sequentially added to the corresponding radioimmunoassay tubes.
(6) Radioactivity in the cells was measured using a γ counter. The equilibrium dissociation constant (KD) was obtained by fitting the curve using nonlinear regression analysis in GraphPad Prism software. KD is the drug concentration that causes half of the maximum effect (50% receptor occupancy).

Series [3] can be described thus: Stability of radioligands in PBS buffer (radio-HPLC). Type of series: physicochemical. As for the experimental part:
The purpose of this experiment was to test the stability of the radioligands under buffer conditions simulating the physiological environment. This stability is a prerequisite for further animal experiments.
1. ^68Ga-SDYD01: ^68Ga-SDYD01 was added to PBS buffer (pH=7.4) and incubated at 37° C. The mixture samples were taken for radio-HPLC analysis after 0.5 hours, 1 hour, and 2 hours of incubation. The stability of ^68Ga-SDYD01 in PBS buffer: the radiochemical purities of ^68Ga-SDYD01 after incubation in PBS for 0.5 hours, 1 hour, and 2 hours were 98%, 97%, and 97%, respectively (FIG. 4).
2. ^177Lu-SDYD01: ^177Lu-SDYD01 was added to PBS buffer (pH=7.4) and incubated at 37° C. The mixture samples were taken for radio-HPLC analysis after 24 hours, 48 hours, and 120 hours of incubation. The stability of ^177Lu-SDYD01 in PBS buffer: the radiochemical purities of ^177Lu-SDYD01 after incubation in PBS for 24 hours, 48 hours, and 120 hours were 97%, 96%, and 94%, respectively (FIG. 5).
1. ^68Ga-SDYD02: ^68Ga-SDYD02 was added to PBS buffer (pH=7.4) and incubated at 37° C. The mixture samples were taken for radio-HPLC analysis after 0.5 hours, 1 hour, and 2 hours of incubation. The stability of ^68Ga-SDYD02 in PBS buffer: the radiochemical purities of ^68Ga-SDYD02 after incubation in PBS for 0.5 hours, 1 hour, and 2 hours were 96%, 95% and 93%, respectively (FIG. 10).
2. ^177Lu-SDYD02: ^177Lu-SDYD02 was added to PBS buffer (pH=7.4) and incubated at 37° C. The mixture samples were taken for radio-HPLC analysis after 24 hours, 48 hours, and 120 hours of incubation. The stability of ^177Lu-SDYD02 in PBS buffer: the radiochemical purities of ^177Lu-SDYD02 after incubation in PBS for 24 hours, 48 hours, and 120 hours were 95%, 91% and 87%, respectively (FIG. 11).
1. ^68Ga-SDYD05: ^68Ga-SDYD05 was added to PBS buffer (pH=7.4) and incubated at 37° C. The mixture samples were taken for radio-HPLC analysis after 0.5 hours, 1 hour, and 2 hours of incubation. The stability of ^68Ga-SDYD05 in PBS buffer: the radiochemical purities of ^68Ga-SDYD05 after incubation in PBS for 0.5 hours, 1 hour, and 2 hours were 98%, 96% and 95%, respectively (FIG. 16).
2. ^177Lu-SDYD05: ^177Lu-SDYD05 was added to PBS buffer (pH=7.4) and incubated at 37° C. The mixture samples were taken for radio-HPLC analysis after 24 hours, 48 hours, and 120 hours of incubation. The stability of ^177Lu-SDYD05 in PBS buffer: the radiochemical purities of ^177Lu-SDYD05 after incubation in PBS for 24 hours, 48 hours, and 120 hours were 97%, 96% and 96%, respectively (FIG. 17).
1. ^68Ga-SDYD06: ^68Ga-SDYD06 was added to PBS buffer (pH=7.4) and incubated at 37° C. The mixture samples were taken for radio-HPLC analysis after 0.5, 1, and 2 hours of incubation. The stability of ^68Ga-SDYD06 in PBS buffer: the radiochemical purities of ^68Ga-SDYD06 after incubation in PBS for 0.5 hours, 1 hour, and 2 hours were 96%, 94% and 93%, respectively (FIG. 22).
2. ^177Lu-SDYD06: ^177Lu-SDYD06 was added to PBS buffer (pH=7.4) and incubated at 37° C. The mixture samples were taken for radio-HPLC analysis after 24 hours, 48 hours, and 120 hours of incubation.
1. ^68Ga-SDYD03: ^68Ga-SDYD03 was added to PBS buffer (pH=7.4) and incubated at 37° C. The mixture samples were taken for radio-HPLC analysis after 0.5 hours, 1 hour, and 2 hours of incubation. The stability of ^68Ga-SDYD03 PBS in PBS buffer: the radiochemical purities of ^68Ga-SDYD03 after incubation in PBS for 0.5 hours, 1 hour, and 2 hours were 96%, 96% and 95%, respectively (FIG. 27).
2. ^177Lu-SDYD03: ^177Lu-SDYD03 was added to PBS buffer (pH=7.4) and incubated at 37° C. The mixture samples were taken for radio-HPLC analysis after 24 hours, 48 hours, and 120 hours of incubation. The stability of ^177Lu-SDYD03 in PBS buffer: the radiochemical purities of ^177Lu-SDYD03 after incubation in PBS for 24 hours, 48 hours, and 120 hours are 99%, 96% and 94%, respectively (FIG. 28). […]

Series [4] can be described thus: Small animal PET imaging and biodistribution study. The class given is in vivo, NSG mice. The conditions noted are these: NSG, mouse, in vivo, iv, 7.4 MBq, total radioactivity, absolute uptake value in the tumor. Here is the method:
(§1) Eleven NSG mice bearing subcutaneous xenograft tumors (U87 MG cells), with tumor sizes approximately 150 mm^3, were used. The mice were intravenously injected via the tail vein with approximately 7.4 MBq of ^68Ga-labeled SDYD01, SDYD02, SDYD03. SDYD04, SDYD05, SDYD06, SDYD07, SDYD08 or SDYD07-1 compounds, or with ^[…]-labeled FAPI-04 or FAP2286 compounds as tracers. Micro PET/CT imaging was performed at 30 min, 60 min, and 120 min post-injection. Static images were acquired in 3D mode for 20 minutes. Reconstruction was performed using the OSEM3D/MAP method to obtain attenuation-corrected PET/CT fusion images.
(§2) NSG mice bearing subcutaneous xenograft tumors (U87 MG cells) were divided into 3 groups, with 11 mice in each group. They were intravenously injected via the tail vein with ^68Ga-labeled SDYD01, SDYD02, SDYD03. SDYD04, SDYD05, SDYD06. SDYD07, SDYD08, or SDYD07-1 compounds, or with ^68Ga-labeled FAPI-04 or FAP2286 compounds as tracers. Tumor-bearing mice injected with ^68Ga-labeled compounds SDYD01, SDYD02, SDYD03, SDYD04, SDYD05, SDYD06, FAPI-04, as well as 68Ga-labeled compounds FAPI-04 and FAP2286, were euthanized at 30 min. 60 min, and 120 min, respectively, for each group. Tumor-bearing mice injected with ^68Ga-labeled compounds SDYD07, SDYD08, and SDYD07-1 were euthanized at 30 min, 60 min, and 90 min, respectively, for each group. Blood, tumors, and other major organs and tissues were collected, weighed, and measured for radioactivity. After radioactive decay correction, the standardized uptake value (SUV) and percentage injected dose per gram of tissue (% ID/g) were calculated. In these figures, (a) represents the PET/CT imaging results, (b) represents the biodistribution results, and (c) represents the relative ratios of radioactive uptake in tumor versus normal tissues.

Series [5] has as its system subcutaneous xenograft tumors (U87 MG cells). In words: Small animal PET imaging and biodistribution study. The class given is in vivo, NSG mice. To be noted: mouse, in vivo. Here is the method: as §1, §2

SMILES strings stand for the structures. Read-outs that look alike come from different tables or passages of the source.

`CCCCCC(=O)N[C@@H]1CSCc2cc(CSCCNC(=O)[C@@H](CCCCNC(=O)CN3CCN(CC(=O)O)CCN(CC(=O)O)CCN(CC(=O)O)CC3)NC(=O)COCCOCCNC(=O)COCCOCCNC(=O)CCN3C(=O)CC(SCCNC(=O)CCC(=O)N[C@@H](CCCNC(=N)N)C(=O)N[C@@H](CCCNC(=N)N)C(=O)N[C@@H](Cc4ccc5ccccc5c4)C(=O)N[C@@H]4CSSC[C@@H](C(=O)N[C@@H](CCCNC(=N)N)C(N)=O)NC(=O)[C@H](CCCNC(N)=O)NC(=O)[C@H](CCCNC(=N)N)NC(=O)[C@H](Cc5ccc(O)cc5)NC(=O)[C@@H]5CCCN5C(=O)[C@H](CCCCN)NC(=O)[C@H](CCCCN)NC(=O)[C@H](CCCNC(N)=O)NC(=O)[C@H](Cc5ccc(O)cc5)NC4=O)C3=O)cc(c2)CSC[C@@H](C(=O)O)NC(=O)[C@H](Cc2ccccc2)NC(=O)[C@H](CCC(N)=O)NC(=O)C([C@@H](C)O)NC(=O)[C@@H]2CCCN2C(=O)[C@@H]2CCCN2C1=O` (stereo partly drawn) [SDYD02]: the “Main peak's PI” value in series [1] came to 11.183. For the same compound, in series [2], the “KD values / binding affinity to the receptors (in words)” value is given as “relatively low KD values”. For the same compound, the Kd in series [2] (FAPI-04 solution, read-out: KD value, First single inhibition group (FAP single inhibition)) is 3.35 ± 0.92 nM; in series [2] (T140 solution (CXCR4 inhibitor), read-out: KD value, Second single inhibition group (CXCR4/GRPR/αvβ3 single inhibition)), 6.3 ± 0.78 nM; in series [2] (read-out: KD value, Non-inhibition group), 7.11 ± 1.17 nM.

In the case of `CCCCCC(=O)N[C@H]1CSCc2cc(CSCCNC(=O)[C@H](CCCCNC(=O)CCN3C(=O)CC(SCC(=O)NCCOCCOCCOCCOCCC(=O)NCCCC[C@@H]4NC(=O)[C@@H](Cc5ccc(O)cc5)NC(=O)[C@H](CC(=O)O)NC(=O)CNC(=O)[C@H](CCCNC(=N)N)NC4=O)C3=O)NC(=O)CCC(C(=O)O)N3CCN(CC(=O)O)CCN(CC(=O)O)CCN(CC(=O)O)CC3)cc(c2)CSC[C@@H](C(=O)O)NC(=O)[C@H](Cc2ccccc2)NC(=O)[C@H](CCC(N)=O)NC(=O)C([C@@H](C)O)NC(=O)[C@@H]2CCCN2C(=O)[C@@H]2CCCN2C1=O` (single isomer, unassigned) [^68Ga-SDYD08, metal not drawn], the “stability in PBS buffer (in words)” value in series [3] is reported as “quite stable in PBS buffer”. In series [4], the tissue uptake at 0.5 h was ≥ 10 %ID/g and the tissue uptake at 1 h was ≥ 10 %ID/g. In addition, the “radioactive uptake in the tumor sites (in words)” value in series [5] is reported as “significant radioactive uptake in the tumor sites”.

As usually defined, the tissue uptake is the percentage of the injected dose found per gram of tissue.
